Data reported in US5602230A, “Peptide inhibitors of selectin binding” (Centocor, Inc., priority 1995, dated 1997).
Where no end group is shown, it is not given here. The star is where a group is joined. Nif = α,α,α-trifluoro-m-toluidino-nicotinyl, O=C(c1cccnc1Nc1cccc(C(F)(F)F)c1)*

Target: T1, purified human P-selectin (Homo sapiens, UniProt P16109)
T1 construct: P-selectin is isolated from human platelet lysates; from tissue; host or cells: outdated human platelet packs (platelet lysates)
T1 sequence (P16109 42-830): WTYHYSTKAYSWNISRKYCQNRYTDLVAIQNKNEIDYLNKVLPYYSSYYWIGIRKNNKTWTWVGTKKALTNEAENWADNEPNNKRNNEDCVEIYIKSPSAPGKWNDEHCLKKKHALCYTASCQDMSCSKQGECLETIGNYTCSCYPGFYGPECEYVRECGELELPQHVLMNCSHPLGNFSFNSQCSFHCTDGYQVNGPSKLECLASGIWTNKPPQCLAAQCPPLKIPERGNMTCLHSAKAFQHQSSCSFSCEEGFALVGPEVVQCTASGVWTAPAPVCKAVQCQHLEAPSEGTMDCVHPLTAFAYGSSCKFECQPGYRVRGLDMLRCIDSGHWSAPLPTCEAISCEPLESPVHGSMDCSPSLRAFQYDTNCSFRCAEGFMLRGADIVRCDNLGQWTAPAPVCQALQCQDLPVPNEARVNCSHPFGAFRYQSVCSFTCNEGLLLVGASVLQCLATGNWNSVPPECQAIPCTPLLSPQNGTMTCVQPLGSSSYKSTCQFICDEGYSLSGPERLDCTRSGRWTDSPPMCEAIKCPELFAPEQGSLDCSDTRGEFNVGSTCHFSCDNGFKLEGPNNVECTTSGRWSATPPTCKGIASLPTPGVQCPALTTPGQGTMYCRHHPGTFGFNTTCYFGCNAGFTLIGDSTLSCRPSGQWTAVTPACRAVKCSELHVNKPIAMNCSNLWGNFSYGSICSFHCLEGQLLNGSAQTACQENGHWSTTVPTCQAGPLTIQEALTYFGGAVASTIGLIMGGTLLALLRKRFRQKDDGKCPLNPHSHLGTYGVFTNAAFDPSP
Assay: Neutrophil adhesion to purified P-selectin immobilized on plastic wells
Assay type: cell-based
Settings: result in words
Source text: Peptides can be screened for their ability to inhibit adhesion to cells, for example, neutrophil adhesion to purified P-selectin immobilized on plastic wells, using the assay described by Geng, et al., Nature 343, 757-760 (1990).
Human neutrophils are isolated from heparinized whole blood by density gradient centrifugation on Mono-Poly resolving media, Flow Laboratories. Neutrophil suspensions are greater than 98% pure and greater than 95% viable by trypan blue exclusion. For adhesion assays, neutrophils are suspended at a concentration of 2×10^6 cells/mL in Hanks' balanced salt solution containing 1.26 mM Ca^2+ and 0.81 mM Mg^2+ (HBSS, Gibco) with […] human serum albumin (HBSS/HSA). Adhesion assays are conducted in triplicate in 96-well microtiter plates, Corning, incubated at 4° C. overnight with 50 microliters of various protein solutions.
P-selectin is isolated from human platelet lysates by immunoaffinity chromatography on antibody S12-Sepharose™ and ion-exchange chromatography on a Mono-Q™ column (FLPC, Pharmacia Fine Chemicals), as follows. […]
Bound P-selectin is eluted from the S12 Affigel with 100 mL of 80% ethylene glycol, 1 mM MES pH 6.0, 0.01% Lubrol PX. Peak fractions with absorbance at 280 nm are pooled. […]

| Substance | inhibit the adhesion of human neutrophils to purified human P-selectin (FIG. I) |
| --- | --- |
| SEQ ID NO: 10: peptide of Formula I shown in FIG. I; its sequence is not printed in the text (Nif-TDLVAIQ-NH2) | inhibit the adhesion |
| YTDLVAI-NH2 [SEQ ID NO: 4, Tyr-Thr-Asp-Leu-Val-Ala-Ile-NH2] | inhibit the adhesion |
